Holding throughout (settings): both partners purified
Assay [1] deals with T1, recombinant TNFR2 extracellular domain fused with rabbit IgG1 Fc (Homo sapiens, UniProt P20333).
T1 construct: TNFR2, human, extracellular domain; also called TNFR2-rFc; source: Expi293F, transfected; purified on Protein A (as the chimeric antibodies)
As to the kind of experiment: SPR; Biacore T200; antibodies (1 ug/mL, ca. 400 RU) captured on a CM5 chip with anti-human IgG Fc; TNFR2-rFc and CD30-rFc (10 nM) run one after the other as 1st and 2nd analytes, in both orders; PBS, 0.05% Tween 20, pH 7.4, 25 °C. (In general: SPR reads the build-up and loss of mass on a sensor chip optically.)

The target in assay [2] is T2, recombinant CD30 extracellular domain fused with rabbit IgG1 Fc (Homo sapiens, UniProt P28908).
T2 construct: CD30, human, extracellular domain; also called CD30-rFc; source: Expi293F, transfected; purified on Protein A (as the chimeric antibodies)
The assay is described as above.

The target of assay [3] is T2, recombinant CD30 extracellular domain …. The experiment in a line: flow cytometry on cells; crosslinking: antigen-expressing cells incubated with mAb or BsAb (10 ug/mL), washed twice, then CD30-rFc or TNFR2-rFc (50 ng/mL) 1 h on ice; rFc detected with R-PE anti-rabbit IgG; the antibody is held on the cells by its other arm. Background: In flow cytometry, cells or beads pass a laser one at a time.

T2 sequence (P28908 19-385): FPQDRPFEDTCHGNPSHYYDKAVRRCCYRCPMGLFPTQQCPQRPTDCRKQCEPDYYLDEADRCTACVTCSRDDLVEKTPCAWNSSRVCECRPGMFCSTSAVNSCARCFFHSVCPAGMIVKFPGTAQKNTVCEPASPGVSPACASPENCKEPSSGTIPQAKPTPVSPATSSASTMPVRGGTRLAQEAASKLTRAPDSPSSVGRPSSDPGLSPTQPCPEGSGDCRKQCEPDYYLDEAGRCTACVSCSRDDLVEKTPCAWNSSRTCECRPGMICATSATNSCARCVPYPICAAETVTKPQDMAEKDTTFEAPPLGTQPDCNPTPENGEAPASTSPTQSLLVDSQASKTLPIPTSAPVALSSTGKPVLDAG
T1 sequence (P20333 23-257): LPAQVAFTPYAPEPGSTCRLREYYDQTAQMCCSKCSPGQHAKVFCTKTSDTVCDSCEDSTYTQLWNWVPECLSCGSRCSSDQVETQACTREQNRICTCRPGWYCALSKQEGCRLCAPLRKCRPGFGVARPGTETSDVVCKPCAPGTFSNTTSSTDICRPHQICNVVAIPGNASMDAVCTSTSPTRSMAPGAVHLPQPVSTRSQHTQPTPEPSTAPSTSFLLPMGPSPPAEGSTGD

B1: anti-TNFR2 TR109, human chimeric monoclonal antibody (antibody, V domains shown)
VH: QVQLKESGPGLVAPSQSLSITCTVSGFSLTVYGVNWVRQPPGKGLEWLGMIWGDGSTAYNSALKSRLTITKDNSKTQVFLKMNSLQTDDTARYYCARDGRRYALDYWGQGTSVTVSS
VL: DIVLTQSPTSLAVSLGQRATISCRASESVDSYGDSFLHWYQQKPGQPPILLIYRASNLDSGIPARFSGSGSRTDFTLTINPVEADDVATYYCQQSNEDPYTFGGGTKLEIK
Consider B1, for which the binding result is recorded as “binds” in assay [1] and “no binding (tested: 10 nM)” in assay [2].

B2: anti-CD30 T104, human chimeric monoclonal antibody (antibody, V domains shown)
VH: QIQLVQSGPELKKPGETVKISCKASGYTFTDYSMHWVKQAPGKGLKWMGWINTETGEPTYADDFKGRFAFSLETSASTAYLQINNLKNEDTATYFCTEGYVFDFWGQGTTLTVSS
VL: DILLTQSPAILSVSPGERVSFSCRASRSIGTSIHWYQQRTNGSPRLLINYASESISGIPSRFSGSGSGTDFTLSINSVESEDIADYYCQQSNSWPLTFGAGTKLELK
Take B2: the binding result in assay [1] is “no binding (tested: 10 nM)”; in assay [3] it was “binds”.

B3: C-cleaved side product of the IMPTS reaction, monovalent Fab^CD30-Fc (SEC peak P2) (antibody, V domains shown)
VH: B2 VH
VL: B2 VL
For the molecule B3, the binding result in assay [1] is reported as “no binding (tested: 10 nM)”; in assay [2], “binds”.
